Laboratory results published in a protein production outcome set (Wang et al. 2014).

test: label from the status in PepcDB records

Q: For “MITKVTARNNKITPVELLNQKFGNKINLGNFADAVFTDAAFKNVAGIANLPMKAPVMQVLMENCIVSKYLKQFVPDRSVCFVEEGQKFYIVLEDGQKIEVPEDVNKALKATVSDVKHWAGYLTEDGEHVIDLLKPAPGPHFYVNLLIGNRLGFKRTLQTTPKSVVDRFGRGSFRSHAATQVLATRFDMRQEENGFPANRQFYLYEDGKQIFYSALIDDNIVEATCKHSCNRTVIKYKTACNLEITRTIFLVPHKKGFPLATELQRIEIKNASDKARNLSITYTGMFGTGAVHAIFEDVTYTNVIMQSAALYNDKGEFIGITPDYYPEEFKQDTRFVTMIVRNGDEKSFPQSFCTDYNDFVGTGTLEHPAGGCNLNNKLNRKGPGFFALGAPFTVEPGKTVIIDTFTGLSSSKDNENYSDAVMLRELDNLLRYFEKSESVEETLNEIINFHENYGKYFQFNTGNKLFDSGFNRNLAFQVLYQTFMSRSFGQTQKGYREIGFREIQDLFASMYYFINIGYQDFVKELLFEWTANVYKMGYANHNFYWVGKQPGLYSDDSLWLLQAYYRYIIYTKDTSVLNEEVPVADGNNEKRAVRETLKAIIQYSACISVGDHGLPLLDLADWNDCLKIASNSIDGATKEKLYYEQLKKTNGKYGDRFMSDYSESVMNAFLLKLAIDHLAEIATLDNDTQLAQQMSELSKEVTDRIQKHAWKENFFARVLINRYKDGSYTYLGAKGDKLSADPNIDGVYFLNSFAWSVLSDVATDEQIAIMVDVIKKHLLTPYGLRLVTPADLNKIANDTATGHYFFGDRENGAVFKHASMMAVAALIKAAKKVKDNELAKEMARIAYFMIDLVLPYKNLENPFQVAGNPRICTQYINTDTGENIGPLLSGTATWLNLNLISLAGIEYTRDGISFNPILREEETQLNFTLKAPKCSYKFSITKPVGFARMESSEYELFVDGQKIDNTVIPMYTDEKEHIVTLKFK”, which protein production is on record?
A: not failed

Q: Which protein production does the source give for “MITNNVSLLIMGIDENQERQKEYNGAFHTDALLLATFNKDDKTVKLTSIPRDTYTYVPVEKKKDKITHAYGSGFVKNGKDGGPQTSVEAVEKLLQVPVDYFVKFNFNSFTKIVDGLDGIEVDVPVEFTEQNSKDEPDAIHLKKGLQKLTGEEALALARTRHIDSDAMRGQRQQLVIEAILSKLKSVGSITKLEKIVEAVDGDFKTNLAMDDILSFYKYGLNCSIEKIQLAGDDLYLPNGPNGQRVYYYNPNKKDLQSLSNTLRTHLGLSEKQIEENLEHHHHHH” here?
A: not failed

Q: For “MITSTNKEAYPNTLIVILGHDEGRSSFEEKEDVTRVTNDKGETIGFNFFNVDKLIDFDKLPNGPVKLSDDELEALNKKLAEVGFDDKLEYGKPTLVYGYVKTCEKHPDSDHLHVTTIEVGDGEEHQIVCGAPNIAQGQKVVVALPGTLMPNGAQIWPGKLRGVDSYGMICSARELGLPHAPQKRGIMVVPDSFEVGAEFEPTKCDELIASGEITLLEHHHHHH”, which protein production is on record?
A: not failed

Q: Which protein production does the source give for “MITVFGLKSKLAPRREKLAEVIYNSLHLGLDIPKGKHAIRFLCLEKEDFYYPFDRSDDYTVIEINLMAGRMEGTKKRLIKMLFSELEYKLGIRAHDVEITIKEQPAHCWGFRGMTGDEARDLDYDIYV” here?
A: not failed

Q: For “MITVVGGTFSKLHKGHKALLNTAIDTGNEVVIGLTSDEYVKKNKVYPAIPYSVRYRTLYNYMIKRTNKFRIRQIDDRNGNAPYEKDYEVIVVSPETYPRSLKINEIRISNGLPPLKIIRVPYVLAQDLFPISSTRIINGEID”, which protein production is on record?
A: not failed

Q: For “MITYPKQMRDSGFKFEFFCDQGGYYQHVMDHLISCTQRQETPVNISNIPKCKAVLVTSLTGEIIKAQGRHLDMLLIVFED”, which protein production is on record?
A: failed

Q: Which protein production does the source give for “MIVAWTLGIFGDDLPKGGARETGLLVHVSAGLLILAALIMRLVWRAAVPPPPPEPNEFRRWLGAFADPSARLFHYTLYALLVVVPVAGIVTQFARGEALPLLGIYEISSPWIRDRAFAHSVKEIHEIAAHALVFVAFFHAGAALIHHIVFRDNTLNRMLPRSK” here?
A: failed

Q: For “MIVCKNRIGTMKRLGRISLRVLLLAGVLLSLLLMAMTLLYPPVEKGGLFFMLAIEVALLFFLGFLYNKVVLPIRAVGDGMDMLRSQDYATTLAPVGQPDADRVVELYNALMHSLKKERLRLEERDNFLSLVMDVSPVGFVVLDFDMRVVSVNPAARRLLDLPDDYIPIERPLEEVCAKIPFGPDELGEGESRTWRLPTAEVRRITRMRFFDRSFSRLFFSIETLTEELHSAEKEAYEKLIRLIAHEVNNSTAGIIGVLNAVGDAFDDTPHTPEGEVSEAIALCRDRCMAMSRFITRFAEVVKLPDPTLSSVDLVPLCERCILLMQPLAVETGVKMKMCKEQDSCLVRCDAEQIEQVVINLLRNAIESFAQQNDLAVSATKTVLLCLDRHNLLVEDNGQPISDDVATRLFTPFFSTKPNGQGIGLVVIREVLTRHGWSFSLTTDADGRTRFRMAWP”, which protein production is on record?
A: failed

Q: With “MIVEERIYRIRGGKMQEYLKLVREEGIAIQAPILGNLIGYFVTDIGPLSQVIHMWGYASLDDRAERRGKLAEDQRWQAFIPRLSVLIESSENRILLPTDFSPLR” as the sequence, how does the protein production read?
A: not failed

Q: With “MIVITGASSGLGAELAKLYDAEGKATYLTGRSESKLSTVTNCLSNNVGYRACDLASHQEVEQLFEQLDSIPSTVVHSAGSGYFGPLEKQDPDQIQTLIENNLSSAINVLRELVKRYKDQPVNVVMIMSTAAQQPKAQESTYCAVKWAVKGLIESVRLELKGKPMKIIAVYPGGMATEFWETSGKSLDTSSFMSAEDAALMILGALANIGNGYVSDITVNRL” as the sequence, how does the protein production read?
A: failed

Q: Which protein production does the source give for “MIVLGHRGYSAKYLENTLEAFMKAIEAGANGVELDVRLSKDGKVVVSHDEDLKRLFGLDVKIRDATVSELKELTDGKITTLKEVFENVSDDKIINIEIKEREAADAVLEISKKRKNLIFSSFDLDLLDEKFKGTKYGYLIDEENYGSIENFVERVEKERPYSLHVPYQAFELEYAVEVLRSFRKKGIVIFVWTLNDPEIYRKIRREIDGVITDEVELFVKLR” here?
A: not failed

Q: With “MIVSITLLILAVGVFAIILARFIRIPYTLLLVVLGFFLSLFTVAFGIDTGVRASNFQDLMLFILLPVLIFEAAFALNSKLLFKYLPNVLTLATLGLIISTLVIAVFLYFGIAHSGFPFIAALLTGVVISATDPVAVVGQLKALKAPDDLNVLIEGESLFNDATAIVLFSIILSIALGQSEPDLTSAIITFSKVFFGGIIVGSVFGYIAALLVKIIDTSVPHMVVITLFLAYGTFYIAEHLFHVSGIVAVMFAALLFKKSAQDQLKDVHTGLHNIWESLGFIANIFVFVLLGLVVSLNMFTQMWLAIILAIVGAFIARVIAVYCSVWLNQVIVGQPINRKYPPIMIWGGLRGAVTIALVLSLPTELPYWWTIQSIGFGIVLFTLIVQATTTPLLVKKLNI” as the sequence, how does the protein production read?
A: failed

Q: Which protein production does the source give for “MIVSKRTFRSLYIPILIEQLFILIMGQADTLMLNSYSTDAVAASGMISQILMLITFLITIIHVGTNIRIVHLKEHQPSSISQEIYHNLLFNSIVSIVFTIVIGIAFELILRLFQVPQDIFKLTYQFGMIILSVLTLTTCHMYIGTVLRVMNHASSATRITIISNVTNIILNGIVLFIIPQYVGNPVLGVAVVTAFSRLLGCTLALIALIQIFRPFKHYFKLSWKKIYQVSTLGIPTAGEQISYNFAQTFTTAFIAMLGTQVIAAKSVSTVLSGLSFSCAMAFSAASQIYLGKFISRRRYRTLKKVVIKSIWFNITQSFMIMTCVFIGFIVCGRWITHDIQTYHLIIYYLVILFGLEPIRAINNLIVDLLNVTGDVRYPVTVSVVTTWLLLLPGSYLLGIHWRLGYTGIILVSIADEALRFIIMYLRWRNDRWQARMKQIGV” here?
A: failed

Q: With “MIVVKVGGAEGINYEAVAKDAASLWKEGVKLLLVHGGSAETNKVAEALGHPPRFLTHPGGQVSRLTDRKTLEIFEMVYCGLVNKRLVELLQKEGANAIGLSGLDGRLFVGRRKTAVKYVENGKVKVHRGDYTGTVEEVNKALLDLLLQAGYLPVLTPPALSYENEAINTDGDQIAALLATLYGAEALVYLSNVPGLLARYPDEASLVREIPVERIEDPEYLALAQGRMKRKVMGAVEAVKGGVKRVVFADGRVENPIRRALSGEGTVVR” as the sequence, how does the protein production read?
A: not failed

Q: For “MIVVTGATGNIGRPLTRALAEAGEQVTAVSRHPAAVPDGVRHLVADLAEPAGLRPALTGAKSLFLLLSGDLHALGANPADLIGEAARSGVRRVVLLSTLGVVTRPFGATRIAMRELEDTLRESGLEWAVLRPGGFASNALWWAESVRARRVVAAPFGDVGVPVVDPADIAAVAAACLLEDRHTGGAYELTGPEVITPRGQTEAIAAALGAPVAFHELTREEARTAMARSMPAELADDTLDILGNPSPAELRVSPDIERVLGRAPRPFADWAARNADAFR”, which protein production is on record?
A: failed
